Results published in the supplement of paper PMC9170038.

Tested on: MS2 coat protein
Experiment: apparent KD of MS2 coat protein; designed switch direction (-1 OFF switch, 1 ON switch): -1; higher = weaker reporter binding
Summary of the method: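 Designed RNA switches were transcribed on Illumina chips by stalled E. coli RNA polymerase and titrated with SNAP-549-labelled MS2 coat protein from 0.7 or 1.5 nM, doubling to 3 µM. Step length ran from 0.8–1.5 h at the lowest concentration to 10–20 min at the highest. The apparent KD is the median over clusters for each design, from curve-fitted normalised cluster fluorescence.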

[1] = Eterna round: R95, input ligand: FMN 200 uM
[2] = Eterna round: R95, input ligand: microRNA oligo, concentration not stated
[3] = Eterna round: R95, input ligand: none
[4] = input ligand: microRNA oligo, concentration not stated

| Sequence | apparent KD of MS2 coat protein [1] | apparent KD of MS2 coat protein [2] | apparent KD of MS2 coat protein [3] | apparent KD of MS2 coat protein (input ligand: FMN 200 uM) | apparent KD of MS2 coat protein (input ligand: none) | apparent KD of MS2 coat protein [4] |
| --- | --- | --- | --- | --- | --- | --- |
| GAAUAGGCAGGAUAUACAUGAGGAUCACCCAUGUGCAAGCGAAAGGUACGUGAACAACGUAGAAGGGCCUAAAC [ChP 13.04.2015 #10] (puzzle: Exclusion 3) | 0.0243 µM | 0.0129 µM | 0.0138 µM |  |  |  |
| CUUUACAAGCUAAGAUCCUACAUGAGGAUCACCCAUGUGGUCCGGUGACGUGAGUCACCGGACUUAGCUCGUCUUGA [salish99_S_TOV1_R5_093] (Eterna round: R97, puzzle: Sensor, turn-off variant 1) |  |  |  | 0.032 µM | 0.0391 µM |  |
| GUCCUCGUGGCGCCUAAACACAUGAGGAUCACCCAUGUACAGGCUUUUUGCCGUCUUAUAAUAAAACCGAGGAUACG [Zaveonqu] (puzzle: Sensor v3, turn-off variant 1) | 0.0203 µM | 0.121 µM | 0.0209 µM |  |  |  |
| AGUACUAACAGCUGACUGUUAGUACUGUAGGUUUGUGUUACAUGAGGAUCACCCAUGUCCUCAUAGGCUCGUCUUGU [Mat - Sensor v3 - Turn-off var 2 - D97] (puzzle: Sensor v3, turn-off variant 2) | 0.291 µM | 0.1 µM | 0.284 µM |  |  |  |
| GUGUAGAUAGGAUAUACAUGAGUCUAGCGAAGCUAGAUUCUACAUGAGGAUCACCCAUGUAGAAGGGUCUACAC [Fiskers Ex 2 - 28] (puzzle: Exclusion 2) |  | 0.0143 µM |  |  |  |  |
| UUAUUGUGUGUAGGAUAUGCGUGUUAUUAUUAUGCAGAAGGACAUGAGGAUCACCCAUGUGUAUUGUUAUUAUAUAUUAUAUAU [Title] (Eterna round: R96, puzzle: Exclusion NG 1) |  |  |  | 0.0482 µM | 0.027 µM | 0.0212 µM |
| GUGUGCAGAGGAUAUACAUAGGAAUAUAAUAUAAUAUAAUUACAUGAGGAUCACCCAUGUAGAAGGCUGAGUGU [Excluse me!! 18 - Jieux - Exclusion 2] (puzzle: Exclusion 2) |  | 0.0243 µM |  |  |  |  |
| GAGAAGGUAGGAUAUACGAAUAAAUAGGGUAGUAAUAAGACACAUGAGGAUCACCCAUGUAGAAGGACCAAGAG [Mat - Exclusion 2 - Mod of my Tesla design - D38] (puzzle: Exclusion 2) | 0.037 µM | 0.0193 µM | 0.0211 µM |  |  |  |
| GACUGGACAGGAUAUGUUCUUGAGCACUUGAGGAUCACCCAAGUCAUCAAGAACUCAGGCACAGAAGGGUUUAUGA [salish99_ex5_r4_008] (Eterna round: R97, puzzle: Exclusion 5) |  |  |  | 0.0296 µM | 0.0135 µM |  |
| UGUUGUUACGCAGGAUAUGAGGAUCACCCAUAGUAGGAUAACGAAAGUGAAGGACUGAGGAUUACCCAGAAGGGCGGGUUAACA [pwkr exNG2 2xF5 2xFMN.3] (Eterna round: R96, puzzle: Exclusion NG 2) |  |  |  | 1.01 µM | 0.154 µM | 0.101 µM |
| AGUAACUAUCACGAAAGUGAUAGUUACAACAAGUGAUAAACAUGAGGAUCACCCAUGUCCUCAUUUGCUCGUUUUAU [Sensor 3 - 15] (puzzle: Sensor v3, turn-off variant 2) | 0.328 µM | 0.646 µM | 0.323 µM |  |  |  |
| ACACACAGAGGAUAUCUUCCGCAUGACAUGAGGAUCACCCAUGUGUGCAUGCCCAAAAGUAGAGAAGGCUGUGUGU [eternacac ex5r4 #3] (Eterna round: R97, puzzle: Exclusion 5) |  |  |  | 0.0271 µM | 0.0356 µM |  |
| GGUCUGCGAGGAUAUACAUGAGGAUCACCCAUGUGAGAGUUACUAGUGAGGUCGAUUGGUAGAAGGCGCGGACG [JL-ex3-2.04 salish99 mod] (puzzle: Exclusion 3) | 0.019 µM | 0.103 µM | 0.154 µM |  |  |  |
| CCUUACCGAGGAUAUACAUGAGGAUCACCCAUGUGAUCCUAAGGCUGAUCAAGCCUAUGUAGAAGGCGCAAAUC [salish99_ex3_r4_004] (Eterna round: R97, puzzle: Exclusion 3) |  |  |  | 0.16 µM | 0.13 µM |  |
| ACAUUACAUGAGGAUCACCCAUGUGAGGAUAUGGUGCGGUAGUGUCCUGUCGCGUACUCCAGAAGGCGCGGGUG [1st #46] (Eterna round: R97, puzzle: Exclusion 1) |  |  |  | 0.174 µM | 0.194 µM |  |
| CGGGACCGAGGAUAUACAUGUGGACUCGAGUUGACGUUGGGACAUGAGGAUCACCCAUGUAGAAGGCGGAUCUU [Eternabot (L2) Solution 57] (Eterna round: R97, puzzle: Exclusion 2) |  |  |  | 0.27 µM | 0.741 µM |  |
